Source: the supplement of paper PMC10567573

B1: HNF4A (parent)
chain: RFSRQCVVDKDKRNQCRYCRLKKC

Variants of: B1
Assay: protein stability index of a GFP-peptide fusion (GPS, HEK-293T) (PSI 1-6); higher = more stable
Conditions: c terminus: a fixed tail appended
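Further: lentivirally expressed fusions sorted by FACS into six bins by GFP to DsRed ratio, PSI derived from sequencing read proportions per bin multiplied by bin number.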

Variant	protein stability index
AFSRQCVVDKDKRNQCRYCRLKKC	2.4
CFSRQCVVDKDKRNQCRYCRLKKC	2.95
DFSRQCVVDKDKRNQCRYCRLKKC	2.59
EFSRQCVVDKDKRNQCRYCRLKKC	3.43
FFSRQCVVDKDKRNQCRYCRLKKC	1.94
GFSRQCVVDKDKRNQCRYCRLKKC	2.64
HFSRQCVVDKDKRNQCRYCRLKKC	3.54
IFSRQCVVDKDKRNQCRYCRLKKC	2.65
KFSRQCVVDKDKRNQCRYCRLKKC	2.4
LFSRQCVVDKDKRNQCRYCRLKKC	2.31
MFSRQCVVDKDKRNQCRYCRLKKC	1.54
NFSRQCVVDKDKRNQCRYCRLKKC	2.44
PFSRQCVVDKDKRNQCRYCRLKKC	2.5
QFSRQCVVDKDKRNQCRYCRLKKC	2.66
SFSRQCVVDKDKRNQCRYCRLKKC	2.18
TFSRQCVVDKDKRNQCRYCRLKKC	2.24
VFSRQCVVDKDKRNQCRYCRLKKC	1.53
WFSRQCVVDKDKRNQCRYCRLKKC	2.21
YFSRQCVVDKDKRNQCRYCRLKKC	2.19
RASRQCVVDKDKRNQCRYCRLKKC	3.77
RDSRQCVVDKDKRNQCRYCRLKKC	3.45
RESRQCVVDKDKRNQCRYCRLKKC	3.6
RGSRQCVVDKDKRNQCRYCRLKKC	2.96
RHSRQCVVDKDKRNQCRYCRLKKC	3.34

Variant	protein stability index
RISRQCVVDKDKRNQCRYCRLKKC	2.39
RKSRQCVVDKDKRNQCRYCRLKKC	3.31
RLSRQCVVDKDKRNQCRYCRLKKC	3.06
RMSRQCVVDKDKRNQCRYCRLKKC	2.89
RNSRQCVVDKDKRNQCRYCRLKKC	3.39
RPSRQCVVDKDKRNQCRYCRLKKC	3.45
RQSRQCVVDKDKRNQCRYCRLKKC	3.63
RRSRQCVVDKDKRNQCRYCRLKKC	3.37
RSSRQCVVDKDKRNQCRYCRLKKC	4.23
RTSRQCVVDKDKRNQCRYCRLKKC	3.08
RVSRQCVVDKDKRNQCRYCRLKKC	2.37
RWSRQCVVDKDKRNQCRYCRLKKC	2.37
RYSRQCVVDKDKRNQCRYCRLKKC	3.32
RFARQCVVDKDKRNQCRYCRLKKC	2.59
RFCRQCVVDKDKRNQCRYCRLKKC	3.62
RFDRQCVVDKDKRNQCRYCRLKKC	2.58
RFERQCVVDKDKRNQCRYCRLKKC	3.07
RFFRQCVVDKDKRNQCRYCRLKKC	1.91
RFGRQCVVDKDKRNQCRYCRLKKC	2.34
RFHRQCVVDKDKRNQCRYCRLKKC	2.7
RFIRQCVVDKDKRNQCRYCRLKKC	2.77
RFKRQCVVDKDKRNQCRYCRLKKC	3.33
RFLRQCVVDKDKRNQCRYCRLKKC	2.08
RFMRQCVVDKDKRNQCRYCRLKKC	2.33

Variant	protein stability index
RFNRQCVVDKDKRNQCRYCRLKKC	2.76
RFPRQCVVDKDKRNQCRYCRLKKC	3.26
RFQRQCVVDKDKRNQCRYCRLKKC	2.5
RFRRQCVVDKDKRNQCRYCRLKKC	3.1
RFTRQCVVDKDKRNQCRYCRLKKC	2.67
RFVRQCVVDKDKRNQCRYCRLKKC	2.17
RFWRQCVVDKDKRNQCRYCRLKKC	1.52
RFYRQCVVDKDKRNQCRYCRLKKC	2.95
RFSCQCVVDKDKRNQCRYCRLKKC	3.38
RFSDQCVVDKDKRNQCRYCRLKKC	2.27
RFSEQCVVDKDKRNQCRYCRLKKC	2.6
RFSFQCVVDKDKRNQCRYCRLKKC	1.9
RFSGQCVVDKDKRNQCRYCRLKKC	2.6
RFSHQCVVDKDKRNQCRYCRLKKC	3.57
RFSIQCVVDKDKRNQCRYCRLKKC	1.85
RFSKQCVVDKDKRNQCRYCRLKKC	2.58
RFSLQCVVDKDKRNQCRYCRLKKC	1.79
RFSMQCVVDKDKRNQCRYCRLKKC	2.91
RFSNQCVVDKDKRNQCRYCRLKKC	2.53
RFSPQCVVDKDKRNQCRYCRLKKC	1.54
RFSQQCVVDKDKRNQCRYCRLKKC	2.8
RFSSQCVVDKDKRNQCRYCRLKKC	2.44
RFSTQCVVDKDKRNQCRYCRLKKC	1.62
RFSVQCVVDKDKRNQCRYCRLKKC	2.59

Variant	protein stability index
RFSWQCVVDKDKRNQCRYCRLKKC	2.4
RFSRACVVDKDKRNQCRYCRLKKC	2.24
RFSRCCVVDKDKRNQCRYCRLKKC	2.04
RFSRDCVVDKDKRNQCRYCRLKKC	2.3
RFSRECVVDKDKRNQCRYCRLKKC	3.29
RFSRFCVVDKDKRNQCRYCRLKKC	2.18
RFSRGCVVDKDKRNQCRYCRLKKC	2.38
RFSRHCVVDKDKRNQCRYCRLKKC	2.5
RFSRICVVDKDKRNQCRYCRLKKC	2.16
RFSRKCVVDKDKRNQCRYCRLKKC	2.43
RFSRLCVVDKDKRNQCRYCRLKKC	2.56
RFSRMCVVDKDKRNQCRYCRLKKC	3.11
RFSRNCVVDKDKRNQCRYCRLKKC	2.6
RFSRPCVVDKDKRNQCRYCRLKKC	2.39
RFSRRCVVDKDKRNQCRYCRLKKC	2.83
RFSRSCVVDKDKRNQCRYCRLKKC	2.96
RFSRTCVVDKDKRNQCRYCRLKKC	2.16
RFSRVCVVDKDKRNQCRYCRLKKC	2.26
RFSRWCVVDKDKRNQCRYCRLKKC	2.4
RFSRYCVVDKDKRNQCRYCRLKKC	2.22
RFSRQAVVDKDKRNQCRYCRLKKC	3.24
RFSRQDVVDKDKRNQCRYCRLKKC	2.47
